Laboratory results: PMC10194888 (PLOS ONE, 2023)

Assays:
[1] = biological target: the molecule itself; assay: AUC; sedimentation velocity, 50,000 rpm, 20 °C, Working Buffer (20 mM HEPES, 0.1 M NaCl, pH 7.5, 2 mM n-octyl-β-D-glucopyranoside); 10 μM, 31 μM and 100 μM; c(s) analysis; monomer to dimer
O83132 = assay: as above

B1: TP0094 (putative phosphotransacetylase, Pta) of Treponema pallidum, wild-type (enzyme, UniProt O83132 1-336, looked up)
chain: MTFVESMQRRAVLAQKRLVLPEACEQRTLEAARLIVFRNIAAKVFLVGCERDIKNTADRCGIDLTDMVVIDPSVSKHRDQFAERYFQKRKHKGISLAQAAEDMRDPLRFAAMMLDQGHADAMVAGAENTTARVLRAGLTIIGTLPSVKTASSCFVMDTNNPRLGGTRGLFIFSDCAVIPTPTAEQLADIACSAAESCRTFIGEEPTVALLSYSTKGSGGDSDENILRVREAVRILHERRVDFTFDGELQLDAALVPKITEKKAPHSPITGKVNTLVFPDLSSGNIGYKLVQRLSDADAYGPFLQGFAKPLSDLSRGCSVEDIVAACAVTLVQSNGR
notes: TP0094, putative phosphotransacetylase (Pta; EC 2.3.1.8) of Treponema pallidum; DNA fragment encoding all amino-acid residues of TP0094; also called TpPta; WT TP0094; source: E. coli BL21 AI (co-transformed with pGroESL), purified
[1]
  stoichiometry N: 2
O83132
  mass purity of the dimer: we estimate the mass purity of the dimer to range from 95–97%
